Holding throughout (assay): radiolabeled ligand binding assay on stably transfected BHK cells
Experiment [1] deals with T1, IL-20RA (full-length, on cells, without transfected IL-20RB) (human, UniProt Q9UHF4 30-553).
T1 construct: Also used as the target of the anti-IL-20RA antibody on human lung tissue, the positive control 'known with IL-20RA expression'; also called ZcytoR7; BaF3/KZ134/IL-20RA only cells
T1 sequence: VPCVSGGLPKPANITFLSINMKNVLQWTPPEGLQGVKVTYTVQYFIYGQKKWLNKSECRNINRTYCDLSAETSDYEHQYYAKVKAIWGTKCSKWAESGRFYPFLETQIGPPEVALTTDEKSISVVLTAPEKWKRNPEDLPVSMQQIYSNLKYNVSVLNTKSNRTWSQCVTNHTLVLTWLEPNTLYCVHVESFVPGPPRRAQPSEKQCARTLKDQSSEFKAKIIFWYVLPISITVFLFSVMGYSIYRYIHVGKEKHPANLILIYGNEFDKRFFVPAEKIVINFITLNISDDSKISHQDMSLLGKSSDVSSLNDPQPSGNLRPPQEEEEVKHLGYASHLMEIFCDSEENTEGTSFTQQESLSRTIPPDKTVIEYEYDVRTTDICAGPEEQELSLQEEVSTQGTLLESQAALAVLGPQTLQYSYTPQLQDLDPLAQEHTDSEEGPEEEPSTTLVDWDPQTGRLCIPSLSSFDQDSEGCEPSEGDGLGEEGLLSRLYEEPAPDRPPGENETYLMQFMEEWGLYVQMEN
On the procedure: (§1) The specificity and affinity of IL-20 for its receptor was determined using BHK cells stably transfected with IL-20RA, IL-20RB or both receptor subunits. […] Binding of ¹²⁵I-labeled IL-20 was eliminated in the presence of 100-fold excess of unlabeled IL-20 but not with 100-fold excess of the unrelated cytokine, IL-21.

For experiment [2], the target named is T2, IL-20RA/IL-20RB heterodimeric receptor (on cells) (human, UniProt Q9UHF4 30-553; Q6UXL0 30-311).
T2 construct: Both subunits are on the same cell (COS, BHK or BaF3 transfectants, or HaCaT endogenously); also called IL-20 receptor; ZcytoR7/pDIRS1
T2 sequence 1: T1 sequence
T2 sequence 2: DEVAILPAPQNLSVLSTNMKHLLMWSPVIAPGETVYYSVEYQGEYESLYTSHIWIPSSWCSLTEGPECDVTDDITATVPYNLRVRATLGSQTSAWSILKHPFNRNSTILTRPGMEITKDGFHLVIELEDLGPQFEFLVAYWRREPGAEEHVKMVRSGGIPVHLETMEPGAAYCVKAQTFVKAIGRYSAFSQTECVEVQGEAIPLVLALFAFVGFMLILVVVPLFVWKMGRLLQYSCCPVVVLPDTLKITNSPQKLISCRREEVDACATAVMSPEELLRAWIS
On the procedure: as §1

The target in experiment [3] is T3, IL-20RB (full-length, on cells, without transfected IL-20RA) (human, UniProt Q6UXL0 30-311).
T3 construct: also called DIRS1; pDIRS1
T3 sequence: T2 sequence 2
On the procedure:
as §1

Broadly, the Kd is the free concentration of one partner at which half of the binding sites on the other are occupied at equilibrium, for simple one-to-one binding. Lower therefore signals a tighter complex.

B1: IL-20 (ligand)
chain: LKTLNLGSCVIATNLQEIRNGFSDIRGSVQAKDGNIDIRILRRTESLQDTKPANRCCLLRHLLRLYLDRVFKNYQTPDHYTLRKISSLANSFLTIKKDLRLCHAHMTCHCGEEAMKKYSQILSHFEKLEPQAAVVKALGELDILLQWMEETE
modifications: biotin label in Example 6; 125I label in Example 10
notes: also called Zcyto10; biotinylated IL-20 protein
Regarding B1, the binding result in experiment [1] and in experiment [3] was “no binding” each time. This molecule displayed a dissociation constant (Kd) in experiment [2] of roughly 1.5 nM.

For the origin of these results see patent US20050170468A1 (published 2005).
